Values of other authors, collected in patent US9522171B2 (priority 2010, dated 2016).

Columns and labels:
C5 [1] = target: T1, C5 (Mus musculus, UniProt P06684); conditions: mouse serum; cited from earlier work
T1 construct: from tissue; host or cells: mouse serum

[2] = test system: alternative, classical and lectin complement pathways; conditions: cited from earlier work
C5 [3] = target: T2, C5 (Rattus norvegicus, UniProt P08650); conditions: rat serum; cited from earlier work
T2 construct: from tissue; host or cells: rat serum

C5 [4] = target: T3, C5 (Homo sapiens, UniProt P01031); conditions: human serum; cited from earlier work
T3 construct: from tissue; host or cells: human serum
T3 sequence (P01031 19-1676): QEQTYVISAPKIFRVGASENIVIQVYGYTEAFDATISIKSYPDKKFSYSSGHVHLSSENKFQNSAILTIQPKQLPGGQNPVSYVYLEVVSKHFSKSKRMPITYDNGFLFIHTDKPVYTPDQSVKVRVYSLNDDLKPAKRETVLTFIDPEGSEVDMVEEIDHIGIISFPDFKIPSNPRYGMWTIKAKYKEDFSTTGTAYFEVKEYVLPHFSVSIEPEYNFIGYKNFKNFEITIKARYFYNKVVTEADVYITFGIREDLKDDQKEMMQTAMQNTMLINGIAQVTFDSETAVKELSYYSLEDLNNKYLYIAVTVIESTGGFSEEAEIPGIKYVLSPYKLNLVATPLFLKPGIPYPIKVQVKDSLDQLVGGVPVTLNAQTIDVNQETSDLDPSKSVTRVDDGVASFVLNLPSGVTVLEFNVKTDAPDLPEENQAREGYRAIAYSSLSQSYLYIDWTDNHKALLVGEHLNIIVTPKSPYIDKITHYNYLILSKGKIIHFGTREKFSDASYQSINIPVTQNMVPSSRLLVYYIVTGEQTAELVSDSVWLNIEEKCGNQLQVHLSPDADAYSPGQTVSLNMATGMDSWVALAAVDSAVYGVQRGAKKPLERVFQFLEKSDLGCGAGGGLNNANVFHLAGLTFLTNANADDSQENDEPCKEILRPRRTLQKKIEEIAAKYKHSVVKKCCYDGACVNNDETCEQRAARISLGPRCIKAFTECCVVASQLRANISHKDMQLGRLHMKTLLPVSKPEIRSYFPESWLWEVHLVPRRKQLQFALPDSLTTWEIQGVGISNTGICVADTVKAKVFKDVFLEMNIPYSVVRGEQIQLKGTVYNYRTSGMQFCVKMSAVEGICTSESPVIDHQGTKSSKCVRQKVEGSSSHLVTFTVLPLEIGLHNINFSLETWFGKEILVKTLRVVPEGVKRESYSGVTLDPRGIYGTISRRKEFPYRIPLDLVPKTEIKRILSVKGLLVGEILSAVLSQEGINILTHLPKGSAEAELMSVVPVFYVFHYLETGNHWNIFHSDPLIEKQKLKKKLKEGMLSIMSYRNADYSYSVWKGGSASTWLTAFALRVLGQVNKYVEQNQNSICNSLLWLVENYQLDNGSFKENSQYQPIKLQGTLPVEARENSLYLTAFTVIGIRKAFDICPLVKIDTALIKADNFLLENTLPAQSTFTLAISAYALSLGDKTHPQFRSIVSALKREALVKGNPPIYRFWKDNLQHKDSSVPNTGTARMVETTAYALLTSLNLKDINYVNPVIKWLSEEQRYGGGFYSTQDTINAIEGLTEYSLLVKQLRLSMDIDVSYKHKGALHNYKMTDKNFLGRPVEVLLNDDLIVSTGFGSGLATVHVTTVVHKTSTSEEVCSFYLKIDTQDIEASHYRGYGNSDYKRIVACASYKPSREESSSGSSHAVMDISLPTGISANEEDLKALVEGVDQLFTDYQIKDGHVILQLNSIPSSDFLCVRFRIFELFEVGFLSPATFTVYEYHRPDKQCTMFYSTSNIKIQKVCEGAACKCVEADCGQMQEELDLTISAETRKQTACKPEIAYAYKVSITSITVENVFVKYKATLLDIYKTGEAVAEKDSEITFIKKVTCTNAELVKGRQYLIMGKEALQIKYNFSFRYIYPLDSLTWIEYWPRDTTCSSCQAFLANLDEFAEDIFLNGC

T1 sequence (P06684 19-1680): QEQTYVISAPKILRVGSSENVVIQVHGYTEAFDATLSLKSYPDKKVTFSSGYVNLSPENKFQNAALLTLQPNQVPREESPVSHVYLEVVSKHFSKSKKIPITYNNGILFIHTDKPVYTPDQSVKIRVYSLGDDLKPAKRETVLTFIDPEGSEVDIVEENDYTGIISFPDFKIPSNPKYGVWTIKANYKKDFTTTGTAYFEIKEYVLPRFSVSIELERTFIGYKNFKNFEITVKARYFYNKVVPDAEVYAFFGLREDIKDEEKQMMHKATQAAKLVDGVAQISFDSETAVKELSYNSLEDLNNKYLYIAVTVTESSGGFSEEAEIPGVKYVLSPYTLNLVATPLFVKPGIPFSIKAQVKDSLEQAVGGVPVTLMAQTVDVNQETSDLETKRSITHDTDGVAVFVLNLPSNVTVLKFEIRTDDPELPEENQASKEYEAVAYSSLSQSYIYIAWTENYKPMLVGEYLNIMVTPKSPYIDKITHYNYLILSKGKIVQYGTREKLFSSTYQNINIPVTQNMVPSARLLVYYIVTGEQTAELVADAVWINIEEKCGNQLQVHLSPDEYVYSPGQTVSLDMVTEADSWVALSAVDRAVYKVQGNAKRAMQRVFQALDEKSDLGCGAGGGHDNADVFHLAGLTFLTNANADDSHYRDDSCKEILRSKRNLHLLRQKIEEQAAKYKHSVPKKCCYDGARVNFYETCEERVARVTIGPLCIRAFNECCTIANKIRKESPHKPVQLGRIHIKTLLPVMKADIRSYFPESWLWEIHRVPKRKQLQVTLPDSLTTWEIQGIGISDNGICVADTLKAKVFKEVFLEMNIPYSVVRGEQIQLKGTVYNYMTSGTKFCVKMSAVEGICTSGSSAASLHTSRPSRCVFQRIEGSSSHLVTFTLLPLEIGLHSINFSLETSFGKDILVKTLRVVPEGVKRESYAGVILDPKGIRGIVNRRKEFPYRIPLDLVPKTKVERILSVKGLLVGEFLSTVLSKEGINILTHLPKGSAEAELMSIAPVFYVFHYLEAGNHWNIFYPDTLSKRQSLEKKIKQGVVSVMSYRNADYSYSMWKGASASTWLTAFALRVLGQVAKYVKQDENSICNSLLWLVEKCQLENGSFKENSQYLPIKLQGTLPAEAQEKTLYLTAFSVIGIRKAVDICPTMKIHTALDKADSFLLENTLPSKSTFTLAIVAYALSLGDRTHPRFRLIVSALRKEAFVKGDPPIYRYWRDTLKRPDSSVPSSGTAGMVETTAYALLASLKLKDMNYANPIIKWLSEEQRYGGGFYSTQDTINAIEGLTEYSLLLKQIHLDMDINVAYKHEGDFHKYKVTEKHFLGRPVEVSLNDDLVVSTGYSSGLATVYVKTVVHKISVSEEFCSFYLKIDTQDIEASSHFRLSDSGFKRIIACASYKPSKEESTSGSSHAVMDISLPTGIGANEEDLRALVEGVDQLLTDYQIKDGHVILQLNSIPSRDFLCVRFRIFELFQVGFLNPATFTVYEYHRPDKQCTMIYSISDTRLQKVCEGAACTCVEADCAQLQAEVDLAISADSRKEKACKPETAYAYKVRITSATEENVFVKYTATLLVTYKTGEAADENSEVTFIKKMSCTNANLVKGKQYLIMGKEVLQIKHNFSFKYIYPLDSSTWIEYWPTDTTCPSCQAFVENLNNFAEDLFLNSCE
T2 sequence (P08650 19-1681): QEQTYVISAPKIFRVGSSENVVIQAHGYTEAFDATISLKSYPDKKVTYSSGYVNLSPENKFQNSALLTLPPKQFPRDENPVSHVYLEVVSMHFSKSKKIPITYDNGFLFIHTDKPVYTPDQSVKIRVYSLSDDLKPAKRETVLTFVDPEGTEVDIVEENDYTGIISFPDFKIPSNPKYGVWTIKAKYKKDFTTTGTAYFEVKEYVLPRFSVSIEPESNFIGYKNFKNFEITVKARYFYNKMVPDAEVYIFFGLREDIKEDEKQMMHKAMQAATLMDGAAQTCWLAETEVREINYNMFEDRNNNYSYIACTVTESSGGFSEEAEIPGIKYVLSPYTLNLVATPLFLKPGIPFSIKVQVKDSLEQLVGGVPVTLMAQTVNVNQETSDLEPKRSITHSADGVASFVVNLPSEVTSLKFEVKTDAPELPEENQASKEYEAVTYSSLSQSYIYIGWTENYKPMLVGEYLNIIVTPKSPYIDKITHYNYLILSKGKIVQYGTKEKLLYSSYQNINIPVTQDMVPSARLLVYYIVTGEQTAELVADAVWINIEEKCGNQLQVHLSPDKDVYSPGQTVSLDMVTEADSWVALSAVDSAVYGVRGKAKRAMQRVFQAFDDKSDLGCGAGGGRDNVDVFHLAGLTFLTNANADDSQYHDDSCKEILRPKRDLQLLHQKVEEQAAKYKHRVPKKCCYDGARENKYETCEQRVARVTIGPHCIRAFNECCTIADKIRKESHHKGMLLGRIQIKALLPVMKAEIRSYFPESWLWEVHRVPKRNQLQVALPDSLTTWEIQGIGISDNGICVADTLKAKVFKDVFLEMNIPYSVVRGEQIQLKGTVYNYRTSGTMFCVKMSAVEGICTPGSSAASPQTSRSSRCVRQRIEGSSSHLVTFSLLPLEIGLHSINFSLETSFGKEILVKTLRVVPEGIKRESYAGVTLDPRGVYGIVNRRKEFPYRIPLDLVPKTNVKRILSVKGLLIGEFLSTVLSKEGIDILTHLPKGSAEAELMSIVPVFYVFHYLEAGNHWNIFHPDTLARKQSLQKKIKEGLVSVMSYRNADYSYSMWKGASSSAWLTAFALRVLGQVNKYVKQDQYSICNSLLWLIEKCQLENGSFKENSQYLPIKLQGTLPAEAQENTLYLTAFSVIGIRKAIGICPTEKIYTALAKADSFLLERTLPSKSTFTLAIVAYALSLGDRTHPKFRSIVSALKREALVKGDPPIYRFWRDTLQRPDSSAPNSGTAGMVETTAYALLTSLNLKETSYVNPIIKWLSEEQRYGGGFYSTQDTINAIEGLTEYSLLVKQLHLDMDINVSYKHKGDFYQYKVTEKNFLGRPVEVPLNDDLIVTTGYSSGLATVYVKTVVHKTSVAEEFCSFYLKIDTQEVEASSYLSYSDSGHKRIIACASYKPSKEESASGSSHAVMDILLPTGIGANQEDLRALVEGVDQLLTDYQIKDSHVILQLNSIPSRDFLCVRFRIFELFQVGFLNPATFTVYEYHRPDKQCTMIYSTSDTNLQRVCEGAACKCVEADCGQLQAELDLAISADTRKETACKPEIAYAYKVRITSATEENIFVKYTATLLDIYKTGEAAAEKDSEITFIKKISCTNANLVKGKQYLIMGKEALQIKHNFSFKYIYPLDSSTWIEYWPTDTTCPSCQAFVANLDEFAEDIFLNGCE

## EV576: Lipocalin protein from salivary glands of the tick Ornithodoros moubata, sequence of FIG. 2; binds complement C5 and LTB4
C5 [1]
  IC50 for binding C5 and preventing its cleavage by C5 convertase: approximately 0.02 mg/ml
[2]
  inhibition of the complement system: inhibits the alternative, classical and lectin complement pathways
C5 [3]
  IC50 for binding C5 and preventing its cleavage by C5 convertase: approximately 0.02 mg/ml
C5 [4]
  IC50 for binding C5 and preventing its cleavage by C5 convertase: approximately 0.02 mg/ml
